# Laboratory results reported in patent publication US20250090676A1 (SUTRO BIOPHARMA, published 2025).
# Target: T1, human FOLR1-HIS (human, UniProt P15328 25-233)
# T1 construct: Analyte of the Biacore assay; also called FolRα-ECD; extracellular domain of FOLR1; not shown: HIS tag
# Assay: SPR (Biacore), antibody captured on anti-Fc, human FOLR1-HIS analyte, 25 C
# T1 sequence (P15328 25-233 limits assumed): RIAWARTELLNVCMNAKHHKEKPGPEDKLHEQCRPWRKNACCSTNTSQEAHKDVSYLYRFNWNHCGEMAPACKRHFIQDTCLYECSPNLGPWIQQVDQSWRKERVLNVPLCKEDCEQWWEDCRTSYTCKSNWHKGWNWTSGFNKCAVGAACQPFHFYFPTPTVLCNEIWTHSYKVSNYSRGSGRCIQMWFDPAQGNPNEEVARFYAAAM
Binder,Kd [nM],koff [s⁻¹],kon [M⁻¹ s⁻¹]
"SRP1848-F04 (antibody, V domains shown, IgG with common trastuzumab LC, cell-free expressed, HIS- and FLAG-tagged; also called Antibody 39) VH: EVQLVESGGGLVQPGGSLRLSCAASGFNISNYSIHWVRQAPGKGLEWVGEIYPIDGITDYADSVKGRFTISADTSKNTAYLQMNSLRAEDTAVYYCARGSWFWRSGYGYYLDYWGQGTLVTVSS VL: not shown",1.32,0.00108,815000
"SRP1848-C03 (antibody, V domains shown, IgG with common trastuzumab LC, cell-free expressed, HIS- and FLAG-tagged; also called Antibody 19) VH: EVQLVESGGGLVQPGGSLRLSCAASGFNIGVYSIHWVRQAPGKGLEWVGEIYPIDGNTDYADSVKGRFTISADTSKNTAYLQMNSLRAEDTAVYYCARGSWAWRSGYSYYLDYWGQGTLVTVSS VL: not shown",1.11,0.00152,1.36e+06
"SRP1848-A06 (antibody, V domains shown, IgG with common trastuzumab LC, cell-free expressed, HIS- and FLAG-tagged; also called Antibody 4) VH: EVQLVESGGGLVQPGGSLRLSCAASGFNIGNSYIHWVRQAPGKGLEWVGGITPIDGNTDYADSVKGRFTISADTSKNTAYLQMNSLRAEDTAVYYCARGAWSWRSGYGYYIDYWGQGTLVTVSS VL: not shown",3.51,–,–
"SRP1848-A08 (antibody, V domains shown, IgG with common trastuzumab LC, cell-free expressed, HIS- and FLAG-tagged; also called Antibody 6) VH: EVQLVESGGGLVQPGGSLRLSCAASGSNIRKHSIHWVRQAPGKGLEWVGSIYPNDGTTDYADSVKGRFTISADTSKNTAYLQMNSLRAEDTAVYYCARGSWFWRAGYGYYLDYWGQGTLVTVSS VL: not shown",2.42,0.00119,493000
"SRP1848-B09 (antibody, V domains shown, IgG with common trastuzumab LC, cell-free expressed, HIS- and FLAG-tagged; also called Antibody 15) VH: EVQLVESGGGLVQPGGSLRLSCAAGGFNITNYYIHWVRQAPGKGLEWVGGITPVDGYTDYADRVKGRFTISADTSKNTAYLQMNSLRAEDTAVYYCARGAWSWRSGYGYYMDYWGQGTLVTVSS VL: not shown",4.26,0.00661,1.55e+06
"SRP1848-D02 (antibody, V domains shown, IgG with common trastuzumab LC, cell-free expressed, HIS- and FLAG-tagged; also called Antibody 24) VH: EVQLVESGGGLVQPGGSLRLSCAASGFNISHNYIHWVRQAPGKGLEWVGGITPQDGYTDYADSVKGRFTISADTSKNTAYLQMNRLRAEDTAVYYCARGAWSWRAGYGYYLDYWGQGTLVTVSS VL: not shown",2.41,0.00205,851000
"SRP1848-A10 (antibody, V domains shown, IgG with common trastuzumab LC, cell-free expressed, HIS- and FLAG-tagged; also called Antibody 8) VH: EVQLVESGGGLVQPGGSLRLSCAASGFNIRKYSIHWARQAPGKGLEWVGDIFPIDDITDYADSVKGRFTISADTSKNTAYLQMNSLRAEDTAVYYCARGSWSWPSGHSYYLDYWGQGTLVTVSS VL: not shown",2.74,0.0033,1.2e+06
"SRP1848-A07 (antibody, V domains shown, IgG with common trastuzumab LC, cell-free expressed, HIS- and FLAG-tagged; also called Antibody 5) VH: EVQLVESGGGLVQPGGSLRLSCAASGFNIGYHSIHWVRQAPGKGLEWVGEIFPVDGTTDYADSVKGRFTISADTSKNTAYLHMNSLRAEDTAVYYCARGFWAWRSGYGYYLDYWGQGTLVTVSS VL: not shown",0.855,0.000866,1.01e+06
"SRP1848-B05 (antibody, V domains shown, IgG with common trastuzumab LC, cell-free expressed, HIS- and FLAG-tagged; also called Antibody 12) VH: EVQLVESGGGLVQPGGSLRLSCAASGFNISNYYIHWVRQAPGKGLEWVGGISPIDGYTDYADSMKGRFTISADTSKNTAYLQMSSLRAEDTAVYYCARGSWFWQSGYGYYLDYWGQGTLVTVSS VL: not shown",9.07,0.00885,976000
"SRP1848-C07 (antibody, V domains shown, IgG with common trastuzumab LC, cell-free expressed, HIS- and FLAG-tagged; also called Antibody 22) VH: EVQLVESGGGLVQPGGSLRLSCAASGFNIRKYSIHWVRQAPGKGLEWVGDIFPIDGITDYADSMKGRFTISADTSKNTAYLQMNSLRAEDTAVYYCARGSWSWPAGYGYYQDYWGQGTLVTVSS VL: not shown",2.21,0.00189,856000
"SRP1848-C05 (antibody, V domains shown, IgG with common trastuzumab LC, cell-free expressed, HIS- and FLAG-tagged; also called Antibody 21) VH: EVQLVESGGGLVQPGGSLRLSCAASGFNIRKYSIHWVRQAPGKGLEWVGDIFPIDGINDYADSVKGRFTISADTSKNTAYLQMNSLRAEDTAVYYCARGSWSWKAGYGYYLDYWGQGTLVTVSS VL: not shown",4.29,0.00454,1.06e+06
"SRP1848-B07 (antibody, V domains shown, IgG with common trastuzumab LC, cell-free expressed, HIS- and FLAG-tagged; also called Antibody 14) VH: EVQLVESGGGLVQPGGSLRLSCAASGFNISRFYIHWVRQAPGKGLEWVGGISPYDGFTDYADSVKGRFTISADTSKNTAYLQMNSLRAEDTAVYYCARGSWSWPAGYGYYQDYWGQGTLVTVSS VL: not shown",5.35,0.00378,706000
"SRP1848-B03 (antibody, V domains shown, IgG with common trastuzumab LC, cell-free expressed, HIS- and FLAG-tagged; also called Antibody 10) VH: EVQLVESGGGLVQPGGSLRLSCAASGFNISMKYIHWVRQAPGKGLEWVGGITPIDGMTDYADSVKGRFTISADTSKNTAYLQMNSLRAEDTAVYYCARGSWSWPSGYSYYLDYWGQGTLVTVSS VL: not shown",7.63,0.00859,1.13e+06
"SRP1848-A04 (antibody, V domains shown, IgG with common trastuzumab LC, cell-free expressed, HIS- and FLAG-tagged; also called Antibody 3) VH: EVQLVESGGGLVQPGGSLRLSCAASGFNIDQSSIHWVRQAPGKGLEWVGVIYPVDGTTDYADSVKGRFTISADTSKNTAYLQMNSLRAEDTAVYYCARGAWSWRSGYGYYIDYWGQGTLVTVSS VL: not shown",2.03,0.00326,1.61e+06
"SRP1848-A09 (antibody, V domains shown, IgG with common trastuzumab LC, cell-free expressed, HIS- and FLAG-tagged; also called Antibody 7) VH: EVQLVESGGGLVQPGGSLRLSCAASGFNIRKQSIHWVRQAPGKGLEWVGSIFPNDGTTDYADSVKGRFTISADTSKNTAYLQVNSLRAEDTAVYYCARGSWFWRSGYGYFLEYWGQGTLVTVSS VL: not shown",1.82,–,–
"SRP1848-B06 (antibody, V domains shown, IgG with common trastuzumab LC, cell-free expressed, HIS- and FLAG-tagged; also called Antibody 13) VH: EVQLVESGGGLVQPGGSLRLSCAASGFNISNYYIHWVRQAPGKGLEWVGGITPIDGYTDYADSVKGRFTISADTSKNTAYLQMNSLRAEDTAVYYCARGFWSWPSGYGYYQDYWGQGTLVTVSS VL: not shown",5.1,0.00317,620000
"SRP1848-B01 (antibody, V domains shown, IgG with common trastuzumab LC, cell-free expressed, HIS- and FLAG-tagged; also called Antibody 9) VH: EVQLVESGGGLVQPGGSLRLSCAASGFNIRNYSIHWVRQAPGKGLEWVGEIYPVDGITDYADSVKGRFTISADTSKNTAYLQMNSLRAEDTAVYYCARGFWSWPSGYSYFLDYWGQGTLVTVSS VL: not shown",3.67,0.00416,1.13e+06
"SRP1848-D04 (antibody, V domains shown, IgG with common trastuzumab LC, cell-free expressed, HIS- and FLAG-tagged; also called Antibody 26) VH: EVQLVESGGGLVQPGGSLRLSCAASGFNISHYSIHWVRQAPGKGLEWVGEIYPRDGITDYADSVKGRFTISADTSKNTAYLQMNSLSAEDTAVYYCARGYWFWRSGYGYYLDYWGQGTLVTVSS VL: not shown",3.48,0.00173,497000
"SRP1848-C04 (antibody, V domains shown, IgG with common trastuzumab LC, cell-free expressed, HIS- and FLAG-tagged; also called Antibody 20) VH: EVQLVESGGGLVQPGGSLRLSCAASGFNIRHYSIHWVRQAPGKGLEWVGEIYPGPGNTDYADSVKGRFTISADTSKNTAYLQMNSLRAEDTAVYYCARGSLSWRAGYGYYLDYWGQGTLVTVSS VL: not shown",3.86,0.00499,1.29e+06
"SRP1848-D05 (antibody, V domains shown, IgG with common trastuzumab LC, cell-free expressed, HIS- and FLAG-tagged; also called Antibody 27) VH: EVQLVESGGGLVQPGGSLRLSCAASGFNISISYIHWVRQAPGKGLEWVGGISPIDGYTDYADSVKGRFTISADTSKNTAYLQMNSLRAEDTAVYYCARGSWSWRAGYGYYLDYWGQGTLVTVSS VL: not shown",2.93,–,–
"SRP1848-B04 (antibody, V domains shown, IgG with common trastuzumab LC, cell-free expressed, HIS- and FLAG-tagged; also called Antibody 11) VH: EVQLVESGGGLVQPGGSLRLSCAASSFNISNHSIHWVRQAPGKGLEWVGEIYPVDGITDYADSVKGRFTISADTSKNTAYLQMNSLRAEDTAVYYCARGRYSWRAGYSYYLDYWGQGTLVTVSS VL: not shown",1.5,0.00117,780000
"SRP1848-C10 (antibody, V domains shown, IgG with common trastuzumab LC, cell-free expressed, HIS- and FLAG-tagged; also called Antibody 23) VH: EVQLVESGGGLVQPGGSLRLSCAASGFNIRTYYIHWVRQAPGKGLEWVGGISPIDGYTDYADSVKGRFTISADTSKNTAYLQMNSLRAEDTAVYYCARGSWSWPAGYGYYLDYWGQGTLVTVSS VL: not shown",4.03,0.00363,899000
"SRP1848-B11 (antibody, V domains shown, IgG with common trastuzumab LC, cell-free expressed, HIS- and FLAG-tagged; also called Antibody 17) VH: EVQLVESGGGLVQPGGSLRLSCAASGFNIGNNSIHWVRQAPGKGLEWVGDISPIDGFTDYADSVKGRFTISADTSKNTAYLQMNSLRAEDTAVYYCARGSWSWRAGYGYYLDYWGQGTLVTVSS VL: not shown",1.52,0.00186,1.22e+06
"SRP1848-C01 (antibody, V domains shown, IgG with common trastuzumab LC, cell-free expressed, HIS- and FLAG-tagged; also called Antibody 18) VH: EVQLVESGGGLVQPGGSLRLSCAASGFNIGNSYIHWVRQAPGKGLEWVGGVTPNDGYTDYADSVKGRFTISADTSKNTTYLQMNSLRAEDTAVYYCARGSWFWRAGYGYYLDYWGQGALVTVSS VL: not shown",3.05,–,–
"SRP1848-B10 (antibody, V domains shown, IgG with common trastuzumab LC, cell-free expressed, HIS- and FLAG-tagged; also called Antibody 16) VH: EVQLVESGGGLVQPGGSLRLSCAASGFNTTTKSIHWVRQAPGKGLEWVGEIYPRDGITDYADSVKGRFTISADTSKNTAYLQMNSLRAEDTAVYYCARGGWHWRSGYSYYLDYWGQGTLVTVSS VL: not shown",2.18,–,–
"SRP1848-A01 (antibody, V domains shown, IgG with common trastuzumab LC, cell-free expressed, HIS- and FLAG-tagged; also called Antibody 1) VH: EVQLVESGGGLVQPGGSLRLSCAASGFNITRYSIHWVRQAPGKGLEWVAGILPESGGTSYADSVKGRFTISADTSKNTAYLQMNSLRAEDTAVYYCARHIYPWDWFSNYVLDYWGQGTLVTVSS VL: not shown",1.87,0.00155,829000
"SRP1848-A02 (antibody, V domains shown, IgG with common trastuzumab LC, cell-free expressed, HIS- and FLAG-tagged; also called Antibody 2) VH: EVQLVESGGGLVQPGGSLRLSCAASGFNISGFRIHWVRQAPGKGLEWVAGIYPESGATYYADSVKGRFTISADTSKNTAYLQMNSLRAEDTAVYYCARHLYVWDWVLDHVLDYWGQGTLVTVSS VL: not shown",16.8,0.00882,525000
